Earlier results as cited in patent US20170037111A1, “Novel peptides and combination of peptides for use in immunotherapy against ovarian cancer and other cancers” (immatics biotechnologies GmbH, priority 2015, published 2017).

System: ovarian cancer
Settings: clinical studies, phase as stated

B1: abagovomab: anti-CA-125 antibody (antibody, chains of the INN, looked up, V domains shown)
VH: QVKLQESGAELARPGASVKLSCKASGYTFTNYWMQWVKQRPGQGLDWIGAIYPGDGNTRYTHKFKGKATLTADKSSSTAYMQLSSLASEDSGVYYCARGEGNYAWFAYWGQGTTVTVSS
VL: DIELTQSPASLSASVGETVTITCQASENIYSYLAWHQQKQGKSPQLLVYNAKTLAGGVSSRFSGSGSGTHFSLKIKSLQPEDFGIYYCQHHYGILPTFGGGTKLEIK
- clinical effect in ovarian cancer patients: promising results
